Reference: publication PMC11574045, “A cofactor-induced repressive type of transcription factor condensation can be induced by synthetic peptides to suppress tumorigenesis” (The EMBO Journal, 2024)

System: HEK293FT cells transfected with TF library
Experiment: Screening of TF condensates based on fluorescent puncta
Type: cell-based
Details: Figure 1B numerical data; TF library screen, one value per transcriptional factor
How it was run: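 Puncta scoring used automated confocal imaging of fifty random fields per well, after anti-Flag or anti-GAL4 immunofluorescence (Alexa 488) in PFA-fixed cells. HEK293FT cells carried TF library plasmids delivered with PEI (1.6 μg/ml DNA). At 60 h they were switched for 12 h to glucose-containing or glucose-free medium.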

B1: HAND1 (protein, UniProt O96004 1-215, looked up)
Heart- and neural crest …: MNLVGSYAHHHHHHHPHPAHPMLHEPFLFGPASRCHQERPYFQSWLLSPADAAPDFPAGGPPPAAAAAATAYGPDARPGQSPGRLEALGGRLGRRKGSGPKKERRRTESINSAFAELRECIPNVPADTKLSKIKTLRLATSYIAYLMDVLAKDAQSGDPEAFKAELKKADGGRESKRKRELQQHEGFPPALGPVEKRIKGRTGWPQQVWALELNQ
- Z score of condensed fraction: -0.3888

B2: HES2 (protein, UniProt Q9Y543 1-173, looked up)
Transcription factor HES-2: MGLPRRAGDAAELRKSLKPLLEKRRRARINQSLSQLKGLILPLLGRENSNCSKLEKADVLEMTVRFLQELPASSWPTAAPLPCDSYREGYSACVARLARVLPACRVLEPAVSARLLEHLWRRAASATLDGGRAGDSSGPSAPAPAPASAPEPASAPVPSPPSPPCGPGLWRPW
- Z score of condensed fraction: -1.172

B3: HDAC8 (protein, UniProt Q9BY41 1-377, looked up)
Histone deacetylase 8: MEEPEEPADSGQSLVPVYIYSPEYVSMCDSLAKIPKRASMVHSLIEAYALHKQMRIVKPKVASMEEMATFHTDAYLQHLQKVSQEGDDDHPDSIEYGLGYDCPATEGIFDYAAAIGGATITAAQCLIDGMCKVAINWSGGWHHAKKDEASGFCYLNDAVLGILRLRRKFERILYVDLDLHHGDGVEDAFSFTSKVMTVSLHKFSPGFFPGTGDVSDVGLGKGRYYSVNVPIQDGIQDEKYYQICESVLKEVYQAFNPKAVVLQLGADTIAGDPMCSFNMTPVGIGKCLKYILQWQLATLILGGGGYNLANTARCWTYLTGVILGKTLSSEIPDHEFFTAYGPDYVLEITPSCRPDRNEPHRIQQILNYIKGNLKHVV
- Z score of condensed fraction: 0.9737

B4: APBB1 (protein, UniProt O00213 1-710, looked up)
Amyloid beta precursor …: MSVPSSLSQSAINANSHGGPALSLPLPLHAAHNQLLNAKLQATAVGPKDLRSAMGEGGGPEPGPANAKWLKEGQNQLRRAATAHRDQNRNVTLTLAEEASQEPEMAPLGPKGLIHLYSELELSAHNAANRGLRGPGLIISTQEQGPDEGEEKAAGEAEEEEEDDDDEEEEEDLSSPPGLPEPLESVEAPPRPQALTDGPREHSKSASLLFGMRNSAASDEDSSWATLSQGSPSYGSPEDTDSFWNPNAFETDSDLPAGWMRVQDTSGTYYWHIPTGTTQWEPPGRASPSQGSSPQEESQLTWTGFAHGEGFEDGEFWKDEPSDEAPMELGLKEPEEGTLTFPAQSLSPEPLPQEEEKLPPRNTNPGIKCFAVRSLGWVEMTEEELAPGRSSVAVNNCIRQLSYHKNNLHDPMSGGWGEGKDLLLQLEDETLKLVEPQSQALLHAQPIISIRVWGVGRDSGRERDFAYVARDKLTQMLKCHVFRCEAPAKNIATSLHEICSKIMAERRNARCLVNGLSLDHSKLVDVPFQVEFPAPKNELVQKFQVYYLGNVPVAKPVGVDVINGALESVLSSSSREQWTPSHVSVAPATLTILHQQTEAVLGECRVRFLSFLAVGRDVHTFAFIMAAGPASFCCHMFWCEPNAASLSEAVQAACMLRYQKCLDARSQASTSCLPAPPAESVARRVGWTVRRGVQSLWGSLKPKRLGAHTP
- Z score of condensed fraction: 2.844

B5: HES3 (protein, UniProt Q61657 1-175, looked up)
Transcription factor HES-3: MEKKRRARINVSLEQLRSLLERHYSHQIRKRKLEKADILELSVKYMRSLQNSLQGLWPVPSGVDYPSGFQGGLRGVSQRLRPGEGDSGLRCPLLLQRREGSTTDSANPQATSVLNPCLPAIWAPSRAAGGSHSPQSPLPLPGGLLESSTDVVAPHPASNCQAESTRPGFRVWRPW
- Z score of condensed fraction: -1.103

B6: HHEX (protein, UniProt Q03014 1-270, looked up)
Hematopoietically-expressed …: MQYPHPGPAAGAVGVPLYAPTPLLQPAHPTPFYIEDILGRGPAAPTPAPTLPSPNSSFTSLVSPYRTPVYEPTPIHPAFSHHSAAALAAAYGPGGFGGPLYPFPRTVNDYTHALLRHDPLGKPLLWSPFLQRPLHKRKGGQVRFSNDQTIELEKKFETQKYLSPPERKRLAKMLQLSERQVKTWFQNRRAKWRRLKQENPQSNKKEELESLDSSCDQRQDLPSEQNKGASLDSSQCSPSPASQEDLESEISEDSDQEVDIEGDKSYFNAG
- Z score of condensed fraction: -0.4373

B7: HELIOS (protein, UniProt Q9UKS7 1-526, looked up)
Zinc finger protein Helios: METEAIDGYITCDNELSPEREHSNMAIDLTSSTPNGQHASPSHMTSTNSVKLEMQSDEECDRKPLSREDEIRGHDEGSSLEEPLIESSEVADNRKVQELQGEGGIRLPNGKLKCDVCGMVCIGPNVLMVHKRSHTGERPFHCNQCGASFTQKGNLLRHIKLHSGEKPFKCPFCSYACRRRDALTGHLRTHSVGKPHKCNYCGRSYKQRSSLEEHKERCHNYLQNVSMEAAGQVMSHHVPPMEDCKEQEPIMDNNISLVPFERPAVIEKLTGNMGKRKSSTPQKFVGEKLMRFSYPDIHFDMNLTYEKEAELMQSHMMDQAINNAITYLGAEALHPLMQHPPSTIAEVAPVISSAYSQVYHPNRIERPISRETADSHENNMDGPISLIRPKSRPQEREASPSNSCLDSTDSESSHDDHQSYQGHPALNPKRKQSPAYMKEDVKALDTTKAPKGSLKDIYKVFNGEGEQIRAFKCEHCRVLFLDHVMYTIHMGCHGYRDPLECNICGYRSQDRYEFSSHIVRGEHTFH
- Z score of condensed fraction: -0.5188

B8: HES1 (protein, UniProt Q14469 1-280, looked up)
Transcription factor HES-1: MPADIMEKNSSSPVAATPASVNTTPDKPKTASEHRKSSKPIMEKRRRARINESLSQLKTLILDALKKDSSRHSKLEKADILEMTVKHLRNLQRAQMTAALSTDPSVLGKYRAGFSECMNEVTRFLSTCEGVNTEVRTRLLGHLANCMTQINAMTYPGQPHPALQAPPPPPPGPGGPQHAPFAPPPPLVPIPGGAAPPPGGAPCKLGSQAGEAAKVFGGFQVVPAPDGQFAFLIPNGAFAHSGPVIPVYTSNSGTSVGPNAVSPSSGPSLTADSMWRPWRN
- Z score of condensed fraction: -0.8248

B9: HESX (protein, UniProt Q9UBX0 1-185, looked up)
Homeobox expressed in ES …: MSPSLQEGAQLGENKPSTCSFSIERILGLDQKKDCVPLMKPHRPWADTCSSSGKDGNLCLHVPNPPSGISFPSVVDHPMPEERASKYENYFSASERLSLKRELSWYRGRRPRTAFTQNQIEVLENVFRVNCYPGIDIREDLAQKLNLEEDRIQIWFQNRRAKLKRSHRESQFLMAKKNFNTNLLE
- Z score of condensed fraction: -0.5047

B10: HDAC11 (protein, UniProt Q96DB2 1-347, looked up)
Histone deacetylase 11: MLHTTQLYQHVPETRWPIVYSPRYNITFMGLEKLHPFDAGKWGKVINFLKEEKLLSDSMLVEAREASEEDLLVVHTRRYLNELKWSFAVATITEIPPVIFLPNFLVQRKVLRPLRTQTGGTIMAGKLAVERGWAINVGGGFHHCSSDRGGGFCAYADITLAIKFLFERVEGISRATIIDLDAHQGNGHERDFMDDKRVYIMDVYNRHIYPGDRFAKQAIRRKVELEWGTEDDEYLDKVERNIKKSLQEHLPDVVVYNAGTDILEGDRLGGLSISPAGIVKRDELVFRMVRGRRVPILMVTSGGYQKRTARIIADSILNLFGLGLIGPESPSVSAQNSDTPLLPPAVP
- Z score of condensed fraction: 0.2732

B11: HES5 (protein, UniProt Q5TA89 1-166, looked up)
Transcription factor HES-5: MAPSTVAVELLSPKEKNRLRKPVVEKMRRDRINSSIEQLKLLLEQEFARHQPNSKLEKADILEMAVSYLKHSKAFVAAAGPKSLHQDYSEGYSWCLQEAVQFLTLHAASDTQMKLLYHFQRPPAAPAAPAKEPKAPGAAPPPALSAKATAAAAAAHQPACGLWRPW
- Z score of condensed fraction: -0.9865

B12: HEYL (protein, UniProt Q9NQ87 1-328, looked up)
Hairy/enhancer-of-split …: MKRPKEPSGSDGESDGPIDVGQEGQLSQMARPLSTPSSSQMQARKKHRGIIEKRRRDRINSSLSELRRLVPTAFEKQGSSKLEKAEVLQMTVDHLKMLHATGGTGFFDARALAVDFRSIGFRECLTEVIRYLGVLEGPSSRADPVRIRLLSHLNSYAAEMEPSPTPTGPLAFPAWPWSFFHSCPGLPALSNQLAILGRVPSPVLPGVSSPAYPIPALRTAPLRRATGIILPARRNVLPSRGASSTRRARPLERPATPVPVAPSSRAARSSHIAPLLQSSSPTPPGPTGSAAYVAVPTPNSSSPGPAGRPAGAMLYHSWVSEITEIGAF
- Z score of condensed fraction: 1.497

B13: GTF2IRD1 (protein, UniProt Q9UHL9 1-959, looked up)
General transcription factor …: MALLGKRCDVPTNGCGPDRWNSAFTRKDEIITSLVSALDSMCSALSKLNAEVACVAVHDESAFVVGTEKGRMFLNARKELQSDFLRFCRGPPWKDPEAEHPKKVQRGEGGGRSLPRSSLEHGSDVYLLRKMVEEVFDVLYSEALGRASVVPLPYERLLREPGLLAVQGLPEGLAFRRPAEYDPKALMAILEHSHRIRFKLKRPLEDGGRDSKALVELNGVSLIPKGSRDCGLHGQAPKVPPQDLPPTATSSSMASFLYSTALPNHAIRELKQEAPSCPLAPSDLGLSRPMPEPKATGAQDFSDCCGQKPTGPGGPLIQNVHASKRILFSIVHDKSEKWDAFIKETEDINTLRECVQILFNSRYAEALGLDHMVPVPYRKIACDPEAVEIVGIPDKIPFKRPCTYGVPKLKRILEERHSIHFIIKRMFDERIFTGNKFTKDTTKLEPASPPEDTSAEVSRATVLDLAGNARSDKGSMSEDCGPGTSGELGGLRPIKIEPEDLDIIQVTVPDPSPTSEEMTDSMPGHLPSEDSGYGMEMLTDKGLSEDARPEERPVEDSHGDVIRPLRKQVELLFNTRYAKAIGISEPVKVPYSKFLMHPEELFVVGLPEGISLRRPNCFGIAKLRKILEASNSIQFVIKRPELLTEGVKEPIMDSQGTASSLGFSPPALPPERDSGDPLVDESLKRQGFQENYDARLSRIDIANTLREQVQDLFNKKYGEALGIKYPVQVPYKRIKSNPGSVIIEGLPPGIPFRKPCTFGSQNLERILAVADKIKFTVTRPFQGLIPKPDEDDANRLGEKVILREQVKELFNEKYGEALGLNRPVLVPYKLIRDSPDAVEVTGLPDDIPFRNPNTYDIHRLEKILKAREHVRMVIINQLQPFAEICNDAKVPAKDSSIPKRKRKRVSEGNSVSSSSSSSSSSSSNPDSVASANQISLVQWPMYMVDYAGLNVQLPGPLNY
- Z score of condensed fraction: -0.874

B14: HELT (protein, UniProt A6NFD8 1-242, looked up)
Hairy and enhancer of …: MSDKLKERKRTPVSHKVIEKRRRDRINRCLNELGKTVPMALAKQSSGKLEKAEILEMTVQYLRALHSADFPRGREKAELLAEFANYFHYGYHECMKNLVHYLTTVERMETKDTKYARILAFLQSKARLGAEPAFPPLGSLPEPDFSYQLHPAGPEFAGHSPGEAAVFPQGSGAGPFPWPPGAARSPALPYLPSAPVPLASPAQQHSPFLTPVQGLDRHYLNLIGHAHPNALNLHTPQHPPVL
- Z score of condensed fraction: -0.4669
